B1: GLTSCR2 (parent)
chain: LARRRRRRQARREAEADKPRRLGR

Variants of: B1
Assay: protein stability index of a GFP-peptide fusion (GPS, HEK-293T) (PSI 1-6); higher = more stable
Settings: c terminus: a fixed tail appended
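Note: lentivirally expressed fusions sorted by FACS into six bins by GFP to DsRed ratio, PSI derived from sequencing read proportions per bin multiplied by bin number.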

Variant	protein stability index
LARRRRRRQARWEAEADKPRRLGR [R12W]	4.34
LARRRRRRQARVEAEADKPRRLGR [R12V]	5.34
LARRRRRRQARTEAEADKPRRLGR [R12T]	4.98
LARRRRRRQARYEAEADKPRRLGR [R12Y]	4.51
LARRRRRRQARPEAEADKPRRLGR [R12P]	4.6
LARRRRRRQARREAYADKPRRLGR [E15Y]	4.21
LARRRRRRQARREAFADKPRRLGR [E15F]	4.36
LARRRRRRQARREAAADKPRRLGR [E15A]	4.78
LARRRRRRQARREAMADKPRRLGR [E15M]	4.72
LARRRRRRQARREAVADKPRRLGR [E15V]	4.64
LARRRRRRQARREASADKPRRLGR [E15S]	4.12
LARRRRRRQARREAQADKPRRLGR [E15Q]	4.52
LARRRRRRQARREALADKPRRLGR [E15L]	4.16
LARRRRRRQARREAHADKPRRLGR [E15H]	4.55
LARRRRRRQARREACADKPRRLGR [E15C]	4.68
LARRRRRRQARREAIADKPRRLGR [E15I]	4.63
LARRRRRRQARREARADKPRRLGR [E15R]	3.99
LARRRRRRQARREAWADKPRRLGR [E15W]	3.87
LARRRRRRQARREANADKPRRLGR [E15N]	5.4
LARRRRRRQARREAPADKPRRLGR [E15P]	4.44
LARRRRRRQARREATADKPRRLGR [E15T]	4.22
LARRRRRRQARREADADKPRRLGR [E15D]	4.55
LARRRRRRQARREAGADKPRRLGR [E15G]	4.43
LARRRRRRQARREAKADKPRRLGR [E15K]	3.6

Variant	protein stability index
LARRRRRRQARREAEADKPRRNGR [L22N]	4.62
LARRRRRRQARREAEADKPRRGGR [L22G]	4.3
LARRRRRRQARREAEADKPRRAGR [L22A]	4.74
LARRRRRRQARREAEADKPRRKGR [L22K]	4.71
LARRRRRRQARREAEADKPRRHGR [L22H]	4.23
LARRRRRRQARREAEADKPRRRGR [L22R]	5.04
LARRRRRRQARREAEADKPRRDGR [L22D]	5.31
LARRRRRRQARREAEADKPRRPGR [L22P]	4.15
LARRRRRRQARREAEADKPRRFGR [L22F]	3.87
LARRRRRRQARREAEADKPRRMGR [L22M]	4.74
LARRRRRRQARREAEADKPRRIGR [L22I]	4.7
LARRRRRRQARREAEADKPRRQGR [L22Q]	4.87
LARRRRRRQARREAEADKPRRSGR [L22S]	5.13
LARRRRRRQARREAEADKPRRCGR [L22C]	4.53
LARRRRRRQARREAEADKPRREGR [L22E]	5.15
LARRRRRRQARREMEADKPRRLGR [A14M]	4.34
LARRRRRRQARREQEADKPRRLGR [A14Q]	4.8
LARRRRRRQARREWEADKPRRLGR [A14W]	4.45
LARRRRRRQARRENEADKPRRLGR [A14N]	4.44
LARRRRRRQARRESEADKPRRLGR [A14S]	4.7
LARRRRRRQARREREADKPRRLGR [A14R]	4.52
LARRRRRRQARRELEADKPRRLGR [A14L]	4.33
LARRRRRRQARREYEADKPRRLGR [A14Y]	4.6
LARRRRRRQARRETEADKPRRLGR [A14T]	4.97

Variant	protein stability index
LARRRRRRQARREGEADKPRRLGR [A14G]	3.91
LARRRRRRQARREFEADKPRRLGR [A14F]	4.11
LARRRRRRQARREKEADKPRRLGR [A14K]	4.61
LARRRRRRQARREDEADKPRRLGR [A14D]	4.49
LARRRRRRQARREHEADKPRRLGR [A14H]	4.34
LARRRRRRQARREVEADKPRRLGR [A14V]	4.58
LARRRRRRQARREIEADKPRRLGR [A14I]	4.28
LARRRRRRQARREPEADKPRRLGR [A14P]	4.97
LARRRRRRQARREEEADKPRRLGR [A14E]	5.11
LARRRRRRQARRDAEADKPRRLGR [E13D]	4.61
LARRRRRRQARRHAEADKPRRLGR [E13H]	4.13
LARRRRRRQARRPAEADKPRRLGR [E13P]	4.36
LARRRRRRQARRIAEADKPRRLGR [E13I]	4.73
LARRRRRRQARRGAEADKPRRLGR [E13G]	5.01
LARRRRRRQARRYAEADKPRRLGR [E13Y]	4.4
LARRRRRRQARRQAEADKPRRLGR [E13Q]	4.88
LARRRRRRQARRLAEADKPRRLGR [E13L]	4.46
LARRRRRRQARRTAEADKPRRLGR [E13T]	4.83
LARRRRRRQARRKAEADKPRRLGR [E13K]	4.37
LARRRRRRQARRFAEADKPRRLGR [E13F]	4.04
LARRRRRRQARRWAEADKPRRLGR [E13W]	4.51
LARRRRRRQARRMAEADKPRRLGR [E13M]	3.72
LARRRRRRQARRSAEADKPRRLGR [E13S]	4.26
LARRRRRRQARRVAEADKPRRLGR [E13V]	4.35

Variant	protein stability index
LARRRRRRQARRNAEADKPRRLGR [E13N]	4.59
LARRRRRRQARRRAEADKPRRLGR [E13R]	4.4
LARRRRRRQARRCAEADKPRRLGR [E13C]	5.01
LARRRRRRQARRAAEADKPRRLGR [E13A]	4.51
LARRRRRRQARREAEADKHRRLGR [P19H]	4.09
LARRRRRRQARREAEADKYRRLGR [P19Y]	4.26
LARRRRRRQARREAEADKERRLGR [P19E]	4.64
LARRRRRRQARREAEADKSRRLGR [P19S]	4.16
LARRRRRRQARREAEADKMRRLGR [P19M]	4.08
LARRRRRRQARREAEADKARRLGR [P19A]	3.92
LARRRRRRQARREAEADKLRRLGR [P19L]	3.91
LARRRRRRQARREAEADKTRRLGR [P19T]	4.39
LARRRRRRQARREAEADKDRRLGR [P19D]	4.91
LARRRRRRQARREAEADKWRRLGR [P19W]	3.92
LARRRRRRQARREAEADKCRRLGR [P19C]	4.29
LARRRRRRQARREAEADKNRRLGR [P19N]	4.58
LARRRRRRQARREAEADKIRRLGR [P19I]	3.81
LARRRRRRQARREAEADKGRRLGR [P19G]	4.57
LARRRRRRQARREAEADKQRRLGR [P19Q]	4.19
LARRRRRRQARREAEADKKRRLGR [P19K]	4.61
LARRRRRRQARREAEADKVRRLGR [P19V]	4.08
LARRRRRRQARREAEADKRRRLGR [P19R]	4.54
LARRRRRRQARREAEDDKPRRLGR [A16D]	4.82
LARRRRRRQARREAEKDKPRRLGR [A16K]	4.32

Variant	protein stability index
LARRRRRRQARREAELDKPRRLGR [A16L]	3.29
LARRRRRRQARREAEWDKPRRLGR [A16W]	3.73
LARRRRRRQARREAEQDKPRRLGR [A16Q]	4.89
LARRRRRRQARREAEVDKPRRLGR [A16V]	4.69
LARRRRRRQARREAEMDKPRRLGR [A16M]	4.97
LARRRRRRQARREAERDKPRRLGR [A16R]	3.96
LARRRRRRQARREAEGDKPRRLGR [A16G]	4.09
LARRRRRRQARREAEEDKPRRLGR [A16E]	4.8
LARRRRRRQARREAESDKPRRLGR [A16S]	3.77
LARRRRRRQARREAEFDKPRRLGR [A16F]	4.4
LARRRRRRQARREAECDKPRRLGR [A16C]	4.48
LARRRRRRQARREAEHDKPRRLGR [A16H]	5.25
LARRRRRRQARREAETDKPRRLGR [A16T]	4.76
LARRRRRRQARREAEPDKPRRLGR [A16P]	4.61
LARRRRRRQARREAENDKPRRLGR [A16N]	4.91
LARRRRRRQARREAEIDKPRRLGR [A16I]	4.22
LARRRRRRQARREAEYDKPRRLGR [A16Y]	4.61
LARRRRRRQARREAEADCPRRLGR [K18C]	5.07
LARRRRRRQARREAEADAPRRLGR [K18A]	4.89
LARRRRRRQARREAEADMPRRLGR [K18M]	5.14
LARRRRRRQARREAEADIPRRLGR [K18I]	4.34
LARRRRRRQARREAEADPPRRLGR [K18P]	5.41
LARRRRRRQARREAEADFPRRLGR [K18F]	5.1
LARRRRRRQARREAEADTPRRLGR [K18T]	4.29

Variant	protein stability index
LARRRRRRQARREAEADWPRRLGR [K18W]	3.88
LARRRRRRQARREAEADHPRRLGR [K18H]	4.98
LARRRRRRQARREAEADVPRRLGR [K18V]	5.01
LARRRRRRQARREAEADEPRRLGR [K18E]	5.03
LARRRRRRQARREAEADQPRRLGR [K18Q]	4.97
LARRRRRRQARREAEADYPRRLGR [K18Y]	4.85
LARRRRRRQARREAEADNPRRLGR [K18N]	4.96
LARRRRRRQARREAEADRPRRLGR [K18R]	5.02
LARRRRRRQARREAEADSPRRLGR [K18S]	4.74
LARRRRRRQARREAEADLPRRLGR [K18L]	5.11
LARRRRRRQARREAEADGPRRLGR [K18G]	4.91
LARRRRRRQARREAEADDPRRLGR [K18D]	4.78
LARRRRRRQARREAEAMKPRRLGR [D17M]	4.49
LARRRRRRQARREAEAVKPRRLGR [D17V]	3.99
LARRRRRRQARREAEAPKPRRLGR [D17P]	4.33
LARRRRRRQARREAEAKKPRRLGR [D17K]	4.99
LARRRRRRQARREAEACKPRRLGR [D17C]	4.07
LARRRRRRQARREAEAWKPRRLGR [D17W]	4.33
LARRRRRRQARREAEAGKPRRLGR [D17G]	4.24
LARRRRRRQARREAEAIKPRRLGR [D17I]	3.98
LARRRRRRQARREAEAFKPRRLGR [D17F]	4.73
LARRRRRRQARREAEAAKPRRLGR [D17A]	4.3
LARRRRRRQARREAEARKPRRLGR [D17R]	4.82
LARRRRRRQARREAEAQKPRRLGR [D17Q]	4.53

Variant	protein stability index
LARRRRRRQARREAEALKPRRLGR [D17L]	4.52
LARRRRRRQARREAEAHKPRRLGR [D17H]	4.81
LARRRRRRQARREAEAYKPRRLGR [D17Y]	4.88
LARRRRRRQARREAEANKPRRLGR [D17N]	4.32
LARRRRRRQARREAEAEKPRRLGR [D17E]	5.31
LARRRRRRQARREAEATKPRRLGR [D17T]	4.66
LARRRRRRQARREAEADKPIRLGR [R20I]	4.36
LARRRRRRQARREAEADKPHRLGR [R20H]	5.18
LARRRRRRQARREAEADKPERLGR [R20E]	4.52
LARRRRRRQARREAEADKPVRLGR [R20V]	4.65
LARRRRRRQARREAEADKPQRLGR [R20Q]	4.6
LARRRRRRQARREAEADKPPRLGR [R20P]	5.45
LARRRRRRQARREAEADKPGRLGR [R20G]	4.91
LARRRRRRQARREAEADKPSRLGR [R20S]	5.26
LARRRRRRQARREAEADKPLRLGR [R20L]	4.64
LARRRRRRQARREAEADKPKRLGR [R20K]	4.64
LARRRRRRQARREAEADKPFRLGR [R20F]	4.04
LARRRRRRQARREAEADKPWRLGR [R20W]	4.41
LARRRRRRQARREAEADKPTRLGR [R20T]	4.82
LARRRRRRQARREAEADKPARLGR [R20A]	4.25
LARRRRRRQARREAEADKPMRLGR [R20M]	4.38
LARRRRRRQARREAEADKPYRLGR [R20Y]	4.61
LARRRRRRQARREAEADKPNRLGR [R20N]	4.75
LARRRRRRQARREAEADKPCRLGR [R20C]	4.45

Variant	protein stability index
LARRRRRRQARREAEADKPDRLGR [R20D]	4.11
LARRRRRRQARREAEADKPRQLGR [R21Q]	5.13
LARRRRRRQARREAEADKPRALGR [R21A]	5.06
LARRRRRRQARREAEADKPRGLGR [R21G]	4.39
LARRRRRRQARREAEADKPRNLGR [R21N]	4.73
LARRRRRRQARREAEADKPRILGR [R21I]	3.94
LARRRRRRQARREAEADKPRVLGR [R21V]	4.67
LARRRRRRQARREAEADKPRTLGR [R21T]	4.83
LARRRRRRQARREAEADKPRYLGR [R21Y]	4.94
LARRRRRRQARREAEADKPRHLGR [R21H]	3.99
LARRRRRRQARREAEADKPRWLGR [R21W]	3.64
LARRRRRRQARREAEADKPRELGR [R21E]	4.8
LARRRRRRQARREAEADKPRPLGR [R21P]	3.66
LARRRRRRQARREAEADKPRDLGR [R21D]	4.65
LARRRRRRQARREAEADKPRLLGR [R21L]	4.36
LARRRRRRQARREAEADKPRCLGR [R21C]	4.84
LARRRRRRQARREAEADKPRKLGR [R21K]	4.44
LARRRRRRQARREAEADKPRFLGR [R21F]	4.58
LARRRRRRQARREAEADKPRMLGR [R21M]	4.52
LARRRRRRQARREAEADKPRSLGR [R21S]	5.15

From the supplement of paper PMC10567573
